First the molecules themselves.
B1: PHD finger of PHF23 (aa 338-393), wild type (domain or fragment, human, UniProt Q9BUL5 338-393, looked up)
chain: DLITCYCRKPFAGRPMIECSLCGTWIHLSCAKIKKTNVPDFFYCQKCKELRPEARR
notes: human PHF23, PHD domain, aa 338-393, cloned into pGEX 6p-1; 15N- or 13C,15N-labelled for NMR; also called PHF23PHD; WT PHF23PHD; source: E. coli BL21 (DE3) RIL, purified (glutathione Sepharose 4B, GST cleaved, size exclusion chromatography)

Like-named read-outs stand apart in the source and are kept apart here. Non-standard residues stand in square brackets, D forms with d. No end group written: not given here. Lys(Me3) = C[N+](C)(C)CCCC[C@H](N)C(=O)O

In data set [1] the target is histone H3K4me3 peptide (Homo sapiens) (UniProt P68431). To be noted: cited from earlier work.
Data set [2] shares this target. To be noted: cited from earlier work. This is another data set of the same source.
In data set [3] the target is T1, PHF23 PHD finger (PHF23PHD) (Homo sapiens, UniProt Q9BUL5).
T1 construct: PHD domain (aa 338–393)
T1 sequence (Q9BUL5 338-393): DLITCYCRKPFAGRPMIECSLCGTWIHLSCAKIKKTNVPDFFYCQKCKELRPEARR
Nature of the data set: 1H, […] HSQC NMR titration; nonreducing SDS-PAGE. In kind it is binding.

Data set [4] deals with PHD finger of PHF23 (aa 338-393), wild type (human) (UniProt Q9BUL5). Nature of the data set: other fluorescence titration; intrinsic tryptophan fluorescence, 25 °C; 2.0 µM PHF23PHD with increasing peptide, PBS (pH 6.5), 1 mM TCEP, excitation 295 nm; Kd averaged over three experiments.
Data set [5] concerns the molecule itself. Nature of the data set: crystal structure; PHF23PHD crystallized in the presence of H3K4me3 peptide; 0.1 M Tris pH 8.65, 25% tert-butanol, 18 °C; 2.9 Å; the peptide is not in the structure.
Data set [6] addresses B1. Description: NMR titration; 1H,15N HSQC at 298 K; 0.1 mM 15N-labeled PHD in PBS (pH 6.5), 1 mM TCEP, 8% D2O; histone H3 peptide titrated in; Kd from chemical shift changes against peptide concentration. To be noted: both partners purified.
Data set [7] has as its target PHD finger of PHF23 (aa 338-393), L358M cancer-relevant mutant (human, UniProt Q9BUL5 338-393, L358M).
In data set [8] the target is PHD finger of PHF23 (aa 338-393), R345L cancer-relevant mutant (human, UniProt Q9BUL5 338-393, R345L).
Data set [9] has as its target B1. Description: other fluorescence titration; intrinsic tryptophan fluorescence, 25 °C; 2.0 µM PHF23PHD with increasing peptide, PBS (pH 6.5), 1 mM TCEP, excitation 295 nm; Kd averaged over three experiments. To be noted: both partners purified.
Data set [10] deals with T2, PHD finger of PHF23 (aa 338-393), R345L cancer-relevant mutant (human, UniProt Q9BUL5 338-393, R345L).
T2 construct: human PHF23, PHD domain, aa 338-393, with the cancer-relevant mutation R345L (Cosmic); also called PHF23PHD R345L; source: E. coli BL21 (DE3) RIL, grown and purified as wild-type protein
T2 sequence (looked up): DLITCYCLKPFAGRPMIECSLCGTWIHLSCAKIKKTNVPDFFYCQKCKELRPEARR
The description is as above. The settings on record: both partners purified.

Data set [11] deals with T3, PHD finger of PHF23 (aa 338-393), L358M cancer-relevant mutant (human, UniProt Q9BUL5 338-393, L358M).
T3 construct: human PHF23, PHD domain, aa 338-393, with the cancer-relevant mutation L358M (Cosmic); also called PHF23PHD L358M; source: E. coli BL21 (DE3) RIL, grown and purified as wild-type protein
T3 sequence (looked up): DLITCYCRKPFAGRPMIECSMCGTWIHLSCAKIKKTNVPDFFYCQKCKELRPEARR
The description is as above. The settings on record: both partners purified.

For the molecule KDM5A PHD (from UniProt P29375), in [1], the Kd was 0.9 µM.

With BPTF PHD (from UniProt Q12830), the Kd in data set [2] is 3 µM.

As to `CCN(CC)C(=S)SSC(=S)N(CC)CC` [DS, disulfiram], the “1H,15N HSQC NMR titration; nonreducing SDS-PAGE” value in [3] is reported as “Gradual addition of AD or DS to PHF23PHD induced small but significant CSPs in the protein, indicative of direct interactions”.

In data set [4], histone H3K4me2 peptide registered a dissociation constant Kd of 8 µM.

B1: in [5], the binding result is given as “binds”.

With ARTK(Me)QTARKSTG [histone H3K4me1 peptide], the Kd in data set [6] amounted to 580 µM.

B2: histone H3K4me3 peptide (aa 1-12 of H3K4me3) (peptide, UniProt P68431 2-13, looked up)
peptide: ART[Lys(Me3)]QTARKSTG
notes: histone H3, residues 1-12, trimethylated on Lys4; source: synthetic peptide (SynPeptide)
Consider B2, for which the values for the Kd in [7], in [8] and in [9] were 2.4 µM, 4.3 µM and 2 µM, respectively. Moreover, the binding result in data set [10] and in data set [11] was “binds” each time.

B3: histone H3K4me0 peptide (unmodified H3) (peptide)
chain: ARTKQTARKSTG
modifications: unmodified Lys4. Limits 1-12 taken from the H3K4me3 peptide of the same titration series
As for B3, the dissociation constant (Kd) in data set [6] came out at 1600 µM.

(Values after paper PMC7335091, “Mechanistic insights into chromatin targeting by leukemic NUP98-PHF23 fusion” (Nature Communications, 2020).)
